Columns and labels:
[1] = target: human CCR8 (human) (UniProt P51685); test: cell-based or functional assay
[2] = target: human CCR8 (human) (UniProt P51685); test: flow cytometry, hCCR8 transfected CHOK1 cells

Row | Substance | EC80 of hCCL1, hCCR8 Gi2 BRET, HEK-293 in suspension (protocol #1) [1] [nM] | EC80 of hCCL1, hCCR8 Gi2 BRET, adherent HEK-293 (protocol #4) [1] [nM] | % positive cells [2] [%] | MFI fold change to isotype ctrl [2] [fold]
1 | hCCL1 (from UniProt P22362 24-96) (ligand) | 6 | 0.6 |  | 
2 | murine anti-human CCR8 monoclonal antibody L263G8 |  |  | 86.5 | 19.8

Reference: patent US20260167731A1
